Test results: the Human Domainome abundance scans (Beltran et al. 2025)
± gives the uncertainty stated by the source.

B1: Steroid hormone receptor ERR2, residues 100 to 176; numbered along this chain, O95718 (parent)
chain: KRLCLVCGDIASGYHYGVASCEACKAFFKRTIQGNIEYSCPATNECEITKRRRKSCQACRFMKCLKVGMLKEGVRLD

Variants of: B1
Assay: abundance fitness (aPCA) (normalised: wild type 0, dead -1); higher = more abundant; growth selection in yeast, the domain comes from the species named
Details: Homo sapiens

**Q.** For KRLCLVCGDIASGYHYGVASCECCKAFFKRTIQGNIEYSCPATNECEITKRRRKSCQACRFMKCLKVGMLKEGVRLD [A23C], which abundance fitness is on record?
**A.** The abundance fitness was 0.094 ± 0.067.

**Q.** Which abundance fitness does the source give for KRLCLVCGDIASGYHYGVASCEPCKAFFKRTIQGNIEYSCPATNECEITKRRRKSCQACRFMKCLKVGMLKEGVRLD [A23P] here?
**A.** Its abundance fitness is 0.023 ± 0.063.

**Q.** With KRLCLVCGDIASGYHYGVASCEQCKAFFKRTIQGNIEYSCPATNECEITKRRRKSCQACRFMKCLKVGMLKEGVRLD [A23Q] as the variant, how does the abundance fitness read?
**A.** Its abundance fitness is -0.039 ± 0.064.

**Q.** For KRLCLVCGDIASGYHYGVASCETCKAFFKRTIQGNIEYSCPATNECEITKRRRKSCQACRFMKCLKVGMLKEGVRLD [A23T], which abundance fitness is on record?
**A.** Its abundance fitness is -0.376 ± 0.091.

**Q.** With KRLCLVCGDIASGYHYGVASCENCKAFFKRTIQGNIEYSCPATNECEITKRRRKSCQACRFMKCLKVGMLKEGVRLD [A23N] as the variant, how does the abundance fitness read?
**A.** The abundance fitness was -0.658 ± 0.21.

**Q.** Which abundance fitness does the source give for KRLCLVCGDIASGYHYGVASCEDCKAFFKRTIQGNIEYSCPATNECEITKRRRKSCQACRFMKCLKVGMLKEGVRLD [A23D] here?
**A.** Its abundance fitness is 0.049 ± 0.1.

**Q.** For KRLCLVCGDIASGYHYGVASCEYCKAFFKRTIQGNIEYSCPATNECEITKRRRKSCQACRFMKCLKVGMLKEGVRLD [A23Y], which abundance fitness is on record?
**A.** Its abundance fitness is -0.56 ± 0.18.

**Q.** With KRLCLVCGDIASGYHYGVASCEGCKAFFKRTIQGNIEYSCPATNECEITKRRRKSCQACRFMKCLKVGMLKEGVRLD [A23G] as the variant, how does the abundance fitness read?
**A.** Its abundance fitness is 0.321 ± 0.035.

**Q.** Which abundance fitness does the source give for KRLCLVCGDIASGYHYGVASCEVCKAFFKRTIQGNIEYSCPATNECEITKRRRKSCQACRFMKCLKVGMLKEGVRLD [A23V] here?
**A.** Its abundance fitness is -0.014 ± 0.046.

**Q.** With KRLCLVCGDIASGYHYGVASCERCKAFFKRTIQGNIEYSCPATNECEITKRRRKSCQACRFMKCLKVGMLKEGVRLD [A23R] as the variant, how does the abundance fitness read?
**A.** The abundance fitness was 0.166 ± 0.037.

**Q.** Which abundance fitness does the source give for KRLCLVCGDIASGYHYGVASCEFCKAFFKRTIQGNIEYSCPATNECEITKRRRKSCQACRFMKCLKVGMLKEGVRLD [A23F] here?
**A.** Its abundance fitness is -0.538 ± 0.24.

**Q.** With KRLCLVCGDIASGYHYGVASCEICKAFFKRTIQGNIEYSCPATNECEITKRRRKSCQACRFMKCLKVGMLKEGVRLD [A23I] as the variant, how does the abundance fitness read?
**A.** Its abundance fitness is -0.806 ± 0.41.

**Q.** With KRLCLVCGDIASGYHYGVASCEHCKAFFKRTIQGNIEYSCPATNECEITKRRRKSCQACRFMKCLKVGMLKEGVRLD [A23H] as the variant, how does the abundance fitness read?
**A.** Its abundance fitness is -0.16 ± 0.099.

**Q.** For KRLCLVCGDIASGYHYGVASCEECKAFFKRTIQGNIEYSCPATNECEITKRRRKSCQACRFMKCLKVGMLKEGVRLD [A23E], which abundance fitness is on record?
**A.** The abundance fitness was 0.094 ± 0.054.

**Q.** Which abundance fitness does the source give for KRLCLVCGDIASGYHYGVASCELCKAFFKRTIQGNIEYSCPATNECEITKRRRKSCQACRFMKCLKVGMLKEGVRLD [A23L] here?
**A.** Its abundance fitness is -0.371 ± 0.057.

**Q.** Which abundance fitness does the source give for KRLCLVCGDIASGYHYGVASCEKCKAFFKRTIQGNIEYSCPATNECEITKRRRKSCQACRFMKCLKVGMLKEGVRLD [A23K] here?
**A.** The abundance fitness was -0.03 ± 0.059.

**Q.** For KRLCLVCGDIASGYHYGVASCEACCAFFKRTIQGNIEYSCPATNECEITKRRRKSCQACRFMKCLKVGMLKEGVRLD [K25C], which abundance fitness is on record?
**A.** Its abundance fitness is 0.284 ± 0.051.

**Q.** With KRLCLVCGDIASGYHYGVASCEACAAFFKRTIQGNIEYSCPATNECEITKRRRKSCQACRFMKCLKVGMLKEGVRLD [K25A] as the variant, how does the abundance fitness read?
**A.** Its abundance fitness is 0.445 ± 0.035.

**Q.** With KRLCLVCGDIASGYHYGVASCEANKAFFKRTIQGNIEYSCPATNECEITKRRRKSCQACRFMKCLKVGMLKEGVRLD [C24N] as the variant, how does the abundance fitness read?
**A.** The abundance fitness was -0.939 ± 0.3.

**Q.** With KRLCLVCGDIASGYHYGVASCEADKAFFKRTIQGNIEYSCPATNECEITKRRRKSCQACRFMKCLKVGMLKEGVRLD [C24D] as the variant, how does the abundance fitness read?
**A.** Its abundance fitness is 0.265 ± 0.07.

**Q.** For KRLCLVCGDIASGYHYGVASCEAYKAFFKRTIQGNIEYSCPATNECEITKRRRKSCQACRFMKCLKVGMLKEGVRLD [C24Y], which abundance fitness is on record?
**A.** The abundance fitness was -0.837 ± 0.2.

**Q.** For KRLCLVCGDIASGYHYGVASCEAWKAFFKRTIQGNIEYSCPATNECEITKRRRKSCQACRFMKCLKVGMLKEGVRLD [C24W], which abundance fitness is on record?
**A.** The abundance fitness was -0.784 ± 0.075.

**Q.** Which abundance fitness does the source give for KRLCLVCGDIASGYHYGVASCEAMKAFFKRTIQGNIEYSCPATNECEITKRRRKSCQACRFMKCLKVGMLKEGVRLD [C24M] here?
**A.** The abundance fitness was -0.859 ± 0.11.

**Q.** With KRLCLVCGDIASGYHYGVASCEAKKAFFKRTIQGNIEYSCPATNECEITKRRRKSCQACRFMKCLKVGMLKEGVRLD [C24K] as the variant, how does the abundance fitness read?
**A.** Its abundance fitness is -1.07 ± 0.2.

**Q.** For KRLCLVCGDIASGYHYGVASCEARKAFFKRTIQGNIEYSCPATNECEITKRRRKSCQACRFMKCLKVGMLKEGVRLD [C24R], which abundance fitness is on record?
**A.** Its abundance fitness is -0.744 ± 0.061.

**Q.** For KRLCLVCGDIASGYHYGVASCEAQKAFFKRTIQGNIEYSCPATNECEITKRRRKSCQACRFMKCLKVGMLKEGVRLD [C24Q], which abundance fitness is on record?
**A.** The abundance fitness was -0.685 ± 0.12.

**Q.** Which abundance fitness does the source give for KRLCLVCGDIASGYHYGVASCEAVKAFFKRTIQGNIEYSCPATNECEITKRRRKSCQACRFMKCLKVGMLKEGVRLD [C24V] here?
**A.** The abundance fitness was -0.906 ± 0.084.

**Q.** Which abundance fitness does the source give for KRLCLVCGDIASGYHYGVASCEAAKAFFKRTIQGNIEYSCPATNECEITKRRRKSCQACRFMKCLKVGMLKEGVRLD [C24A] here?
**A.** Its abundance fitness is -0.897 ± 0.095.

**Q.** For KRLCLVCGDIASGYHYGVASCEAIKAFFKRTIQGNIEYSCPATNECEITKRRRKSCQACRFMKCLKVGMLKEGVRLD [C24I], which abundance fitness is on record?
**A.** The abundance fitness was -0.707 ± 0.21.

**Q.** For KRLCLVCGDIASGYHYGVASCEALKAFFKRTIQGNIEYSCPATNECEITKRRRKSCQACRFMKCLKVGMLKEGVRLD [C24L], which abundance fitness is on record?
**A.** The abundance fitness was -0.787 ± 0.071.

**Q.** With KRLCLVCGDIASGYHYGVASCEAGKAFFKRTIQGNIEYSCPATNECEITKRRRKSCQACRFMKCLKVGMLKEGVRLD [C24G] as the variant, how does the abundance fitness read?
**A.** The abundance fitness was -0.903 ± 0.069.

**Q.** For KRLCLVCGDIASGYHYGVASCEAPKAFFKRTIQGNIEYSCPATNECEITKRRRKSCQACRFMKCLKVGMLKEGVRLD [C24P], which abundance fitness is on record?
**A.** Its abundance fitness is -1.13 ± 0.22.

**Q.** With KRLCLVCGDIASGYHYGVASCEATKAFFKRTIQGNIEYSCPATNECEITKRRRKSCQACRFMKCLKVGMLKEGVRLD [C24T] as the variant, how does the abundance fitness read?
**A.** The abundance fitness was -1 ± 0.15.

**Q.** With KRLCLVCGDIASGYHYGVASCEASKAFFKRTIQGNIEYSCPATNECEITKRRRKSCQACRFMKCLKVGMLKEGVRLD [C24S] as the variant, how does the abundance fitness read?
**A.** The abundance fitness was -0.869 ± 0.11.

**Q.** With KRLCLVCGDIASGYHYGVASCYACKAFFKRTIQGNIEYSCPATNECEITKRRRKSCQACRFMKCLKVGMLKEGVRLD [E22Y] as the variant, how does the abundance fitness read?
**A.** The abundance fitness was -0.152 ± 0.076.

**Q.** With KRLCLVCGDIASGYHYGVASCWACKAFFKRTIQGNIEYSCPATNECEITKRRRKSCQACRFMKCLKVGMLKEGVRLD [E22W] as the variant, how does the abundance fitness read?
**A.** Its abundance fitness is -0.142 ± 0.053.
